Laboratory results from US20200397914A1.

How the values were obtained:
[1] = target: human folate receptor 1 (folate receptor alpha, FRα) on T47D cells (human) (UniProt P15328); experiment: flow cytometry on T47D cells, FITC anti-human IgG Fcγ detection; control run with M-10
[2] = target: human folate receptor 1 (folate receptor alpha, FRα) on T47D cells (human) (UniProt P15328); experiment: flow cytometry on T47D cells, FITC anti-human IgG Fcγ detection; control run with M-160
[3] = target: human folate receptor 1 (folate receptor alpha, FRα) on T47D cells (human) (UniProt P15328); experiment: flow cytometry on T47D cells, FITC anti-human IgG Fcγ detection; control run with M-166
[4] = target: human folate receptor 1 (folate receptor alpha, FRα) on T47D cells (human) (UniProt P15328); experiment: flow cytometry on T47D cells, FITC anti-human IgG Fcγ detection; control run with M-sSPDB-17
[5] = target: human folate receptor 1 (folate receptor alpha, FRα) on T47D cells (human) (UniProt P15328); experiment: flow cytometry on T47D cells, FITC anti-human IgG Fcγ detection; control run with M-sSPDB-30
[6] = target: human folate receptor 1 (folate receptor alpha, FRα) on T47D cells (human) (UniProt P15328); experiment: flow cytometry on T47D cells, FITC anti-human IgG Fcγ detection; control run with M-sSPDB-87
[7] = target: human folate receptor 1 (folate receptor alpha, FRα) on T47D cells (human) (UniProt P15328); experiment: flow cytometry on T47D cells, FITC anti-human IgG Fcγ detection; control run with M-sSPDB-109
[8] = target: human folate receptor 1 (folate receptor alpha, FRα) on T47D cells (human) (UniProt P15328); experiment: flow cytometry on T47D cells, FITC anti-human IgG Fcγ detection; control run with M-sSPDB-127

Chain of human folate receptor 1 (folate receptor alpha, FRα) on T47D cells (human) (P15328 25-234, stated change not applied): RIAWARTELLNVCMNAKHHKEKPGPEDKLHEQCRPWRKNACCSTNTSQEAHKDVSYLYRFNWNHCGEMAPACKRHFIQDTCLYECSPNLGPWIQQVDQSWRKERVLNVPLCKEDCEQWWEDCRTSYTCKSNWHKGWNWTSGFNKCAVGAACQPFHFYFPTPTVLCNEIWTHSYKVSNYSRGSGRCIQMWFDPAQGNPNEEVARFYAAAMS

- EC50 [1]: 0.3 nM
- EC50 [2]: 0.2 nM
- EC50 [3]: 0.2 nM
- EC50 [4]: 0.2 nM
- EC50 [5]: 0.2 nM
- EC50 [6]: 0.2 nM
- EC50 [7]: 0.2 nM
- EC50 [8]: 0.2 nM
B1: huMov19 antibody (unconjugated) (antibody, from a related filing, V domains shown)
VH: QVQLVQSGAEVVKPGASVKISCKASGYTFTGYFMNWVKQSPGQSLEWIGRIHPYDGDTFYNQKFQGKATLTVDKSSNTAHMELLSLTSEDFAVYYCTRYDGSRAMDYWGQGTTVTVSS
VL: DIVLTQSPLSLAVSLGQPAIISCKASQSVSFAGTSLMHWYHQKPGQQPRLLIYRASNLEAGVPDRFSGSGSKTDFTLTISPVEAEDAATYYCQQSREYPYTFGGGTKLEIKR
